Tests used:
[1] = target: the molecule itself; assay: SEC
[2] = target: the molecule itself; assay: SEC-MALS
[3] = target: the molecule itself; assay: SEC; remark: listed apart in the source

B1: recombinant full-length Aplysia CPEB (His6-CPEB fusion protein) (natural protein)
chain: not shown
stoichiometry N [1]: ≥ 10 | stoichiometry N [2]: 3 | stoichiometry N [3]: > 10

From PMC5518672 (Nature structural & molecular biology, 2013)
